Test results reported in patent publication US20110008841A1.

Molecular target: chimera L
Assay: Bio-Plex titration on bead-captured chimera; cell bold and boxed = binding lost

EC50 cell marked as binding lost although the number is below wild type: 6 pM
B1: AMH26/AML26 (antibody, IgG2, V domains shown)
VH: QVQLVESGGGLVKPGGSLRLSCAASGFTFSDYYMSWIRQAPGKGLEWVSYISSSGSTIYYADSVKGRFTISRDNAKNSLYLQMNSLRAEDTAVYYCARDRTYYFGSGSYEGMDVWGQGTTVTVSS
VL: EILMTQSPATLSVSPGERATLSCRASQSVYSNLAWYQQKPGQAPRLLISGASTRATGIPARFSGSGSGTEFTLTISSLQSEDFAVYYCQQYYNWPWTFGQGTKVEIK
